Assay [1] concerns the target T1, human FcγRIII (F158), low affinity isotype (human, UniProt P08637 17-208).
T1 construct: Receptor captured on plates by anti-GST (clone 8E2.1.1); also called FcγRIII (F158 allele); FcγRIIIA (F158); not shown: GST tag implied by capture on anti-GST coated plates
In words: FcγR binding ELISA; relative to 2H7 control cell line antibody (2 to 4% nonfucosylated).

Assay [2] has as its target T2, human FcγRIII (V158), high affinity isotype (human, UniProt P08637 17-208).
T2 construct: Receptor captured by anti-GST; construct not described; also called FcγRIII (V158 allele); FcγRIIIA (V158); not shown: GST tag implied by capture on anti-GST coated plates
The description is as above.

Assay [3] deals with T1, human FcγRIII (F158), low affinity …. The assay is described as follows: FcγRIII binding ELISA; relative to control 2H7.v511 antibody pools with about 5% nonfucosylation. The procedure:
(§1) Plates were washed with PBS containing 0.05% polysorbate, pH 7.4 (wash buffer) and blocked with PBS containing 0.5% BSA, pH 7.4, at 150 μl/well. After a one-hour incubation at room temperature, plates were washed with wash buffer. Human FcγRIII was added to the plates at 0.25 μg/ml, 100 μl/well, in PBS containing 0.5% BSA, 0.05% polysorbate 20, pH 7.4. (assay buffer). The plates were incubated for one hour and washed with wash buffer. Antibodies were incubated with goat F(ab′)₂ anti-K (Cappel, ICN Pharmaceuticals, Inc., Aurora, Ohio) at a 1:2 (w/w) ratio for 1 hour to form antibody complexes. Eleven […] serial dilutions of complexed IgG antibodies (0.85-50000 ng/ml in threefold serial dilution) in assay buffer were added to the plates. After a two-hour incubation, plates were washed with wash buffer. Bound IgG was detected by adding peroxidase labeled goat F(ab′)₂ anti-human IgG F(ab′)₂ (Jackson ImmunoResearch, West Grove, Pa.) at 100 μl/well in assay buffer. After a one-hour incubation, plates were washed with wash buffer and the substrate 3,3′,5,5′-tetramethyl benzidine (TMB) (Kirkegaard & Perry Laboratories) was added at 100 μl/well. The reaction was stopped by adding 1 M phosphoric acid at 100 μl/well. Absorbance was read at 450 nm on a multiskan Ascent reader (Thermo Labsystems, Helsinki, Finland). The absorbance at the midpoint of the standard curve (mid-OD) was calculated. The corresponding concentrations of standard and samples at this mid-OD were determined from the titration curves using a four-parameter nonlinear regression curve-fitting program (KaleidaGraph, Synergy software, Reading, Pa.). The relative activity was calculated by dividing the mid-OD concentration of standard by that of sample.
(§2) A FcγRIII binding assay was done with antibody 2H7.v511 containing either 65% nonfucosylation (from transient run) or 94-95% nonfucosylation (from best stable clone RNAi2.4-3d).
(In general: An ELISA detects its analyte on a solid surface through an enzyme-linked reagent.)

Assay [4] concerns the target T2, human FcγRIII (V158), high affinity …. Described as above. The procedure: as §1, §2
In assay [5] the target is T1, human FcγRIII (F158), low affinity …. In words: FcγRIII binding ELISA; anti-GST captured receptor, IgG complexed with anti-kappa F(ab')2; relative activity. The procedure:
as §1, with “MaxiSorp 96-well microwell plates (Nunc, Roskilde, Denmark) were coated with 2 μg/ml anti-GST (clone 8E2.1.1, Genentech), at 100 μl/well in 50 mM carbonate buffer, pH 9.6, at 4° C. overnight. Plates” for “Plates”

For assay [6], the target named is T2, human FcγRIII (V158), high affinity …. The description is as above. The procedure: as §1, with “MaxiSorp 96-well microwell plates (Nunc, Roskilde, Denmark) were coated with 2 μg/ml anti-GST (clone 8E2.1.1, Genentech), at 100 μl/well in 50 mM carbonate buffer, pH 9.6, at 4° C. overnight. Plates” for “Plates”

T2 sequence (P08637 17-208 F176V): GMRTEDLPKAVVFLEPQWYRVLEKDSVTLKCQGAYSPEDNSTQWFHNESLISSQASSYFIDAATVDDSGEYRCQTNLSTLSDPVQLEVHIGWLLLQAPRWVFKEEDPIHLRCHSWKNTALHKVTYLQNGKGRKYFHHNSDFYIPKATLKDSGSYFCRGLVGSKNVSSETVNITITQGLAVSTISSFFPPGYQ
T1 sequence (P08637 17-208): as the sequence (P08637 17-208 F176V) above, with V160F counted along it

B1: humanized anti-CD20 antibody 2H7.v16, antibody pool with 35% to 37% nonfucosylation (from RNAi2 / RNAi4 transiently transfected clone #60 cells) (antibody, human IgG1, kappa)
heavy: not shown
light: DIQMTQSPSSLSASVGDRVTITCRASSSVSYMHWYQQKPGKAPKPLIYAPSNLASGVPSRFSGSGSGTDFTLTISSLQPEDFATYYCQQWSFNPPTFGQGTKVEIKRTVAAPSVFIFPPSDEQLKSGTASVVCLLNNFYPREAKVQWKVDNALQSGNSQESVTEQDSKDSTYSLSSTLTLSKADYEKHKVYACEVTHQGLSSPVTKSFNRGEC
modifications: N-linked glycan at Asn297; about 35 to 37% nonfucosylated
notes: differs only in fucose content of the Fc glycan; In the ELISA the IgG was complexed with goat F(ab')2 anti-kappa; RNAi2 and RNAi4 pools are reported together; also called 2H7 antibody pool with 35% to 37% nonfucosylation; lower fucose containing 2H7 antibodies
Consider B1, for which the “fold increase in binding affinity” value in assay [1] came out at 6 fold; in assay [2], 4 fold.

B2: humanized anti-CD20 antibody 2H7.v511 containing 65% nonfucosylation (from transient run) (antibody, human IgG1, kappa)
heavy: EVQLVESGGGLVQPGGSLRLSCAASGYTFTSYNMHWVRQAPGKGLEWVGAIYPGNGATSYNQKFKGRFTISVDKSKNTLYLQMNSLRAEDTAVYYCARVVYYSYRYWYFDVWGQGTLVTVSSASTKGPSVFPLAPSSKSTSGGTAALGCLVKDYFPEPVTVSWNSGALTSGVHTFPAVLQSSGLYSLSSVVTVPSSSLGTQTYICNVNHKPSNTKVDKKVEPKSCDKTHTCPPCPAPELLGGPSVFLFPPKPKDTLMISRTPEVTCVVVDVSHEDPEVKFNWYVDGVEVHNAKTKPREEQYNATYRVVSVLTVLHQDWLNGKEYKCKVSNAALPAPIAATISKAKGQPREPQVYTLPPSREEMTKNQVSLTCLVKGFYPSDIAVEWESNGQPENNYKTTPPVLDSDGSFFLYSKLTVDKSRWQQGNVFSCSVMHEALHNHYTQKSLSLSPGK
light: DIQMTQSPSSLSASVGDRVTITCRASSSVSYLHWYQQKPGKAPKPLIYAPSNLASGVPSRFSGSGSGTDFTLTISSLQPEDFATYYCQQWAFNPPTFGQGTKVEIKRTVAAPSVFIFPPSDEQLKSGTASVVCLLNNFYPREAKVQWKVDNALQSGNSQESVTEQDSKDSTYSLSSTLTLSKADYEKHKVYACEVTHQGLSSPVTKSFNRGEC
modifications: N-linked glycan at Asn297; 65% nonfucosylation
notes: In the ELISA the IgG was complexed with goat F(ab')2 anti-kappa; also called hu2H7.v511; v511-NF
Take B2: the “fold increase in affinity” value in assay [3] amounted to 6.2 fold; in assay [4], 4.8 fold.

B3: humanized 2H7.v16 antibody from clone 'Control' of Table 1 (3% non-fucosylation) (antibody, human IgG1, kappa)
heavy: not shown
light: DIQMTQSPSSLSASVGDRVTITCRASSSVSYMHWYQQKPGKAPKPLIYAPSNLASGVPSRFSGSGSGTDFTLTISSLQPEDFATYYCQQWSFNPPTFGQGTKVEIKRTVAAPSVFIFPPSDEQLKSGTASVVCLLNNFYPREAKVQWKVDNALQSGNSQESVTEQDSKDSTYSLSSTLTLSKADYEKHKVYACEVTHQGLSSPVTKSFNRGEC
modifications: N-linked glycan at Asn297; 3% non-fucosylation
On to B3, for which the “Binding (fold)” value in assay [5] and in assay [6] was 1 fold in each case.

B4: humanized 2H7.v16 antibody from clone 'Parent' of Table 1 (5% non-fucosylation) (antibody, human IgG1, kappa)
heavy: not shown
light: DIQMTQSPSSLSASVGDRVTITCRASSSVSYMHWYQQKPGKAPKPLIYAPSNLASGVPSRFSGSGSGTDFTLTISSLQPEDFATYYCQQWSFNPPTFGQGTKVEIKRTVAAPSVFIFPPSDEQLKSGTASVVCLLNNFYPREAKVQWKVDNALQSGNSQESVTEQDSKDSTYSLSSTLTLSKADYEKHKVYACEVTHQGLSSPVTKSFNRGEC
modifications: N-linked glycan at Asn297; 5% non-fucosylation
Take B4: the “Binding (fold)” value in assay [5] and in assay [6] was 1 fold throughout.

B5: humanized 2H7.v16 antibody from stable RNAi4 clone 5B (45% non-fucosylation) (antibody, human IgG1, kappa)
heavy: not shown
light: DIQMTQSPSSLSASVGDRVTITCRASSSVSYMHWYQQKPGKAPKPLIYAPSNLASGVPSRFSGSGSGTDFTLTISSLQPEDFATYYCQQWSFNPPTFGQGTKVEIKRTVAAPSVFIFPPSDEQLKSGTASVVCLLNNFYPREAKVQWKVDNALQSGNSQESVTEQDSKDSTYSLSSTLTLSKADYEKHKVYACEVTHQGLSSPVTKSFNRGEC
modifications: N-linked glycan at Asn297; 45% non-fucosylation
notes: Glycoform preparation of 2H7.v16 from clone 60 stably transfected with the RNAi4 construct
Take B5: the “Binding (fold)” value in assay [5] was found to be 24.2 fold; in assay [6], 7.5 fold.

B6: humanized anti-CD20 antibody 2H7.v511 containing 94-95% nonfucosylation (from best stable clone RNAi2.4-3d) (antibody, human IgG1, kappa)
heavy: EVQLVESGGGLVQPGGSLRLSCAASGYTFTSYNMHWVRQAPGKGLEWVGAIYPGNGATSYNQKFKGRFTISVDKSKNTLYLQMNSLRAEDTAVYYCARVVYYSYRYWYFDVWGQGTLVTVSSASTKGPSVFPLAPSSKSTSGGTAALGCLVKDYFPEPVTVSWNSGALTSGVHTFPAVLQSSGLYSLSSVVTVPSSSLGTQTYICNVNHKPSNTKVDKKVEPKSCDKTHTCPPCPAPELLGGPSVFLFPPKPKDTLMISRTPEVTCVVVDVSHEDPEVKFNWYVDGVEVHNAKTKPREEQYNATYRVVSVLTVLHQDWLNGKEYKCKVSNAALPAPIAATISKAKGQPREPQVYTLPPSREEMTKNQVSLTCLVKGFYPSDIAVEWESNGQPENNYKTTPPVLDSDGSFFLYSKLTVDKSRWQQGNVFSCSVMHEALHNHYTQKSLSLSPGK
light: DIQMTQSPSSLSASVGDRVTITCRASSSVSYLHWYQQKPGKAPKPLIYAPSNLASGVPSRFSGSGSGTDFTLTISSLQPEDFATYYCQQWAFNPPTFGQGTKVEIKRTVAAPSVFIFPPSDEQLKSGTASVVCLLNNFYPREAKVQWKVDNALQSGNSQESVTEQDSKDSTYSLSSTLTLSKADYEKHKVYACEVTHQGLSSPVTKSFNRGEC
modifications: N-linked glycan at Asn297; 94-95% nonfucosylation
notes: In the ELISA the IgG was complexed with goat F(ab')2 anti-kappa; also called hu2H7.v511; 95% nonfucosylated material
As to B6, the “fold increase in affinity” value in assay [3] was 9.8 fold; in assay [4], 6.8 fold.

B7: humanized 2H7.v16 antibody from stable RNAi4 clone 5F (70% non-fucosylation) (antibody, human IgG1, kappa)
heavy: not shown
light: DIQMTQSPSSLSASVGDRVTITCRASSSVSYMHWYQQKPGKAPKPLIYAPSNLASGVPSRFSGSGSGTDFTLTISSLQPEDFATYYCQQWSFNPPTFGQGTKVEIKRTVAAPSVFIFPPSDEQLKSGTASVVCLLNNFYPREAKVQWKVDNALQSGNSQESVTEQDSKDSTYSLSSTLTLSKADYEKHKVYACEVTHQGLSSPVTKSFNRGEC
modifications: N-linked glycan at Asn297; 70% non-fucosylation
notes: as for B5
With B7, the “Binding (fold)” value was determined as 52.4 fold in assay [5] and 13.7 fold in assay [6].

B8: humanized 2H7.v16 antibody from stable RNAi4 clone 6C (60% non-fucosylation) (antibody, human IgG1, kappa)
heavy: not shown
light: DIQMTQSPSSLSASVGDRVTITCRASSSVSYMHWYQQKPGKAPKPLIYAPSNLASGVPSRFSGSGSGTDFTLTISSLQPEDFATYYCQQWSFNPPTFGQGTKVEIKRTVAAPSVFIFPPSDEQLKSGTASVVCLLNNFYPREAKVQWKVDNALQSGNSQESVTEQDSKDSTYSLSSTLTLSKADYEKHKVYACEVTHQGLSSPVTKSFNRGEC
modifications: N-linked glycan at Asn297; 60% non-fucosylation
notes: as for B5
For B8, the “Binding (fold)” value in assay [5] stood at 34 fold; in assay [6], 10.1 fold.

B9: humanized 2H7.v16 antibody from stable RNAi4 clone 7C (63% non-fucosylation) (antibody, human IgG1, kappa)
heavy: not shown
light: DIQMTQSPSSLSASVGDRVTITCRASSSVSYMHWYQQKPGKAPKPLIYAPSNLASGVPSRFSGSGSGTDFTLTISSLQPEDFATYYCQQWSFNPPTFGQGTKVEIKRTVAAPSVFIFPPSDEQLKSGTASVVCLLNNFYPREAKVQWKVDNALQSGNSQESVTEQDSKDSTYSLSSTLTLSKADYEKHKVYACEVTHQGLSSPVTKSFNRGEC
modifications: N-linked glycan at Asn297; 63% non-fucosylation
notes: as for B5
With B9, the “Binding (fold)” value in assay [5] was found to be 32.4 fold; in assay [6] it was 10.4 fold.

(Values after patent US20090208500A1 (Genentech, published 2009).)
